T1: Human GFRAL ECD-Fc (human GFRAL extracellular domain fused to human IgG1 Fc with 6xHis-tag) (human, UniProt Q6UXV0 19-351)
T1 construct: not shown: Human IgG1 Fc, any junction and the C-terminal 6xHis
T1 sequence: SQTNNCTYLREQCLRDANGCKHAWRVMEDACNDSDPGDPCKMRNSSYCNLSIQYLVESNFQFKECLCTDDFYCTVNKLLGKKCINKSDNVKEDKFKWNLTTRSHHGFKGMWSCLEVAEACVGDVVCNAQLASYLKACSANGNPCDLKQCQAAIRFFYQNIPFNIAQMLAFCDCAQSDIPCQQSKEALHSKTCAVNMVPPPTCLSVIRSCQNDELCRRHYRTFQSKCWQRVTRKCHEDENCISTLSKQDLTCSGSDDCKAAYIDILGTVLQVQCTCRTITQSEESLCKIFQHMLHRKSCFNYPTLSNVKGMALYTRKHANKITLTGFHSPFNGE

T2: GFRAL ECD-Fc (GFRAL extracellular domain, human IgG1 Fc, 6xHis-tag and Avi-tag) (human, UniProt Q6UXV0 19-351)
T2 construct: The recombinant signal peptide is left out; also called GFRAL extracellular domain (ECD)-Fc fusion; not shown: human IgG1 Fc; 6xHis-tag and Avi-tag at the C-terminus
T2 sequence: T1 sequence

B1: HSA-GDF15 (Example 7; linker SEQ ID NO:26) (ligand, not shown: large carriers; small tags and cut ends)
chain: ARNGDHCPLGPGRCCRLHTVRASLEDLGWADWVLSPREVQVTMCIGACPSQFRAANMHAQIKTSLHRLKPDTVPAPCCVPASYNPMVLIQKTDTGVSLQTYDDLLAKDCHCI
modifications: Disulfide-linked homodimer through GDF15; one protomer is given.
notes: No His tag is told of for this construct; purified on HSA CaptureSelect resin
B2: FlagTag-GDF15, homodimer (ligand)
chain: EFDYKDDDDKARNGDHCPLGPGRCCRLHTVRASLEDLGWADWVLSPREVQVTMCIGACPSQFRAANMHAQIKTSLHRLKPDTVPAPCCVPASYNPMVLIQKTDTGVSLQTYDDLLAKDCHCI
notes: it is counted on the native full length protein; also called non-fusion GDF15; mature GDF15 homodimer

How the values were obtained:
[1] = target: T3, cyno GFRAL ECD-Fc (cynomolgus monkey GFRAL extracellular domain fused to human IgG1 Fc with 6xHis-tag) (cynomolgus monkey); assay: SPR (ProteOn)
Procedure: Affinity measurements using Surface Plasmon Resonance (SPR) were performed using a ProteOn XPR36 system (Bio-Rad, Hercules, Calif.). A biosensor surface was prepared by coupling anti-Human IgG Fc (Jackson Immuno Research Labs, West Grove, Pa.) to the modified alginate polymer layer surface of a GLC chip (BioRad) using the manufacturer's instructions for amine-coupling chemistry. Approximately 5000 RU (response units) of mAbs were immobilized. The kinetic experiments were performed at 25° C. in running buffer (DPBS+0.01% P20+100 μg/ml BSA). To perform binding kinetic experiment of HSA-GDF15, GFRAL ECD-Fc or isotype control were captured followed by injections of ligands at 5 concentrations (in a 4-fold serial dilution). The association phase was monitored for 3 minutes at 50 μl/min, then followed by 15 minutes of buffer flow (dissociation phase). The chip surface was regenerated with two 18 second pulses of 100 mM H3PO4 (Sigma, St. Louis, Mo.) at 100 μL/min. The collected data were processed using ProteOn Manager software. First, the data was corrected for background using inter-spots. Then, double reference subtraction of the data was performed by using the buffer injection for analyte injections. The kinetic analysis of the data was performed using a Langmuir 1:1 binding model. […]

[2] = target: T1, Human GFRAL ECD-Fc (human GFRAL …); assay: SPR (ProteOn), GFRAL ECD-Fc captured by anti-human IgG Fc
Procedure: (§1) Affinity measurements using Surface Plasmon Resonance (SPR) were performed using a ProteOn XPR36 system (Bio-Rad, Hercules, Calif.). A biosensor surface was prepared by coupling anti-Human IgG Fc (Jackson Immuno Research Labs, West Grove, Pa.) to the modified alginate polymer layer surface of a GLC chip (BioRad) using the manufacturer's instructions for amine-coupling chemistry. Approximately 5000 RU (response units) of mAbs were immobilized. The kinetic experiments were performed at 25° C. in running buffer (DPBS+0.01% P20+100 μg/ml BSA). To perform binding kinetic experiment of HSA-GDF15, GFRAL ECD-Fc or isotype control were captured followed by injections of ligands at 5 concentrations (in a 4-fold serial dilution). The association phase was monitored for 3 minutes at 50 μl/min, then followed by 15 minutes of buffer flow (dissociation phase). The chip surface was regenerated with two 18 second pulses of 100 mM H3PO4 (Sigma, St. Louis, Mo.) at 100 μL/min. The collected data were processed using ProteOn Manager software. First, the data was corrected for background using inter-spots. Then, double reference subtraction of the data was performed by using the buffer injection for analyte injections. The kinetic analysis of the data was performed using a Langmuir 1:1 binding model. The result was reported in the format of ka (On-rate), kd (Off-rate) and KD (equilibrium dissociation constant).

[3] = target: T3, cyno GFRAL ECD-Fc (cynomolgus monkey …); assay: as above
Procedure: as §1

[4] = target: T2, GFRAL ECD-Fc (GFRAL extracellular …); assay: SPR

Binder | fold difference in binding affinity against human GFRAL [1] [fold] | Kd [2] [nM] | koff [2] [s⁻¹] | kon [2] [M⁻¹ s⁻¹] | Kd [3] [nM] | koff [3] [s⁻¹] | kon [3] [M⁻¹ s⁻¹] | Kd [4] [nM] | koff [4] [s⁻¹] | kon [4] [M⁻¹ s⁻¹]
B1 | ≤ 2 | 0.0861 | 0.000156 | 1.81e+06 | 0.157 | 0.000291 | 1.86e+06 |  |  | 
B2 |  |  |  |  |  |  |  | 0.0196 | 0.000197 | 1.01e+07

Source: patent US20190234935A1 (Janssen / Centocor, published 2019)
